The source of these data is the supplement of paper PMC10899765.

Holding throughout (conditions): 20 nM; 72 h
Data set [1] deals with MCF10A. In words: percent viability (nuclei count relative to siNT); higher = more viable cells. As for the experimental part: (§1)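 After 72 h, cells were fixed and stained with Hoechst and anti-fibrillarin, and nucleoli per nucleus were counted with CellProfiler. Values are plate-adjusted percent effect for the one-nucleolus and 5+ nucleoli phenotypes, normalised to siNT (0%) and to the positive controls siNOL11 or siKIF11 (100%), as the mean of biological triplicates. Percent viability is the nuclei count relative to siNT.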

Data set [2] concerns MCF10A. In words: 5+ nucleoli phenotype percent effect (relative to siNT 0% and siKIF11 100%); higher = more cells with five or more nucleoli. As for the experimental part:
as §1

Data set [3] relates to MCF10A. In words: one-nucleolus phenotype percent effect (relative to siNT 0% and siNOL11 100%); higher = more cells with one nucleolus (ribosome biogenesis inhibition). The method, then: as §1

For AGACCUGGCCCAGACCUCAGC [hsa-miR-631], the percent viability in data set [1] was 25.9%. In addition, in data set [2], the “5+ nucleoli phenotype percent effect” value is -2.57%. Moreover, the “one-nucleolus phenotype percent effect” value in data set [3] was 24.7%.
As for CAGCCCCACAGCCUCAGA [hsa-miR-4323], in data set [1], the percent viability turned out to be 39.3%. For the same sequence, in data set [2], the “5+ nucleoli phenotype percent effect” value is -13.4%. Also, the “one-nucleolus phenotype percent effect” value in data set [3] stood at 2.83%.
On the same counts, the results for AGGACCUGCGGGACAAGAUUCUU [hsa-miR-492] are 49%, -18.8% and 9.32%.
For “GGGGGCCGAUACACUGUACGAGA [hsa-miR-128-2-5p]”, in that order: 91.1%, 34.6% and -25.2%.
On the same counts, the results for UCGUGCAUAUAUCUACCACAU [hsa-miR-4536-3p] are 49.3%, 0.0637% and 2.78%.
UAACGCAUAAUAUGGACAUGU [hsa-miR-3912]: the percent viability in data set [1] is 71.2%. In data set [2], the “5+ nucleoli phenotype percent effect” value was 27.3%. Also, in data set [3], the “one-nucleolus phenotype percent effect” value was -23.9%.
For “CCCCGGUGUUGGGGCGCGUCUGC [hsa-miR-4783-3p]”, in that order: 49.5%, 13.9% and -13%.
For “AGCUGGUAAAAUGGAACCAAAU [hsa-miR-133a-5p]”, in that order: 30.7%, -4.69% and 7.21%.
On the same counts, the results for “CUAUACAAUCUAUUGCCUUCCC [hsa-let-7f-1-3p]” are 39.2%, -25% and -6.49%.
In the case of “UAAAACUGCAGUUAUUUUUGC [hsa-miR-548ar-3p]”, in data set [1], the percent viability came to 122%. Moreover, the “5+ nucleoli phenotype percent effect” value in data set [2] came to 38.3%. The “one-nucleolus phenotype percent effect” value in data set [3] is -24.2%.
Take UUGGGCUGGGCUGGGUUGGG [hsa-miR-1587]: the percent viability in data set [1] was determined as 19.9%. Also, the “5+ nucleoli phenotype percent effect” value in data set [2] is -22.5%. Further, the “one-nucleolus phenotype percent effect” value in data set [3] is 29.2%.
On the same counts, the results for CAGGGCCAGGCACAGAGUAAG [hsa-miR-6895-5p] are 41.8%, 0.712% and 13.8%.
Consider “AAAACUAGGACUGUGUGGUGUA [hsa-miR-7844-5p]”, for which the percent viability in data set [1] is 40.6%. The “5+ nucleoli phenotype percent effect” value in data set [2] is -30.8%. Further, the “one-nucleolus phenotype percent effect” value in data set [3] was determined as 15.8%.
For UGUUCUCUUUGCCAAGGACAG [hsa-miR-2117], in that order: 56.1%, 4.15% and -0.405%.
For GCUGGUCUGCGUGGUGCUCGG [hsa-miR-3663-5p], in that order: 123%, 52.4% and -23.3%.
As for AGAGAUGCCGCCUUGCUCCUU [hsa-miR-4708-5p], the percent viability in data set [1] came to 45.7%. In data set [2], the “5+ nucleoli phenotype percent effect” value is -25.3%. Also, the “one-nucleolus phenotype percent effect” value in data set [3] was determined as 21%.
Consider UCGAGGAGCUCACAGUCU [hsa-miR-151b], for which the percent viability in data set [1] worked out at 57.3%. Further, the “5+ nucleoli phenotype percent effect” value in data set [2] is 10.8%. For the same sequence, the “one-nucleolus phenotype percent effect” value in data set [3] worked out at 11.9%.
On the same counts, the results for UCCCUCCUUCUGUCCCCACAG [hsa-miR-4667-3p] are 71.8%, -12.9% and -2.78%.
On the same counts, the results for CAGGCCAUAUUGUGCUGCCUCA [hsa-miR-15a-3p] are 29.6%, -27.1% and 23%.
For CUGGCCUCUUCUUUCUCCUAG [hsa-miR-6878-3p], in that order: 45.7%, 96% and -7.63%.
As to “UUUUGCGAUGUGUUCCUAAUAU [hsa-miR-450a-5p]”, in data set [1], the percent viability was found to be 65.3%. In data set [2], the “5+ nucleoli phenotype percent effect” value was 13.7%. Moreover, the “one-nucleolus phenotype percent effect” value in data set [3] came to 3.94%.
On the same counts, the results for “AAAACUGUAAUUACUUUUGUAC [hsa-miR-548g-3p]” are 165%, 49.3% and -25.2%.
On the same counts, the results for UGCCCUAAAUGCCCCUUCUGGC [hsa-miR-18b-3p] are 98.8%, -9.28% and -2.3%.
On the same counts, the results for ACAAAGUGCUUCCCUUUAGAGU [hsa-miR-520h] are 173%, 11.9% and -15%.
